Measured values taken from publication PMC6168351 (Molecular cancer therapeutics, 2018).

Target: Human GPA33 (Novoprotein), recombinant (Homo sapiens (Human)., UniProt Q99795)
Experiment: SPR

Chain of Human GPA33 (Novoprotein), recombinant (Q99795 22-235): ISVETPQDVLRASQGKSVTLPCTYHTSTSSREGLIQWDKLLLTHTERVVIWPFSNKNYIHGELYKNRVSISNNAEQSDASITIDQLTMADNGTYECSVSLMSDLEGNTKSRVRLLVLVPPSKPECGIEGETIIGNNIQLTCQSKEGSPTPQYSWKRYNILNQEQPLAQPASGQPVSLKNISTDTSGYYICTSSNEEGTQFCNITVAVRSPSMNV

B1: huA33 (humanized A33 antibody, selected clone), IgG1 (antibody, V domains shown)
VH: EVQLVESGGGLVKPGGSLRLSCAASGFAFSTYDMSWVRQAPGKRLEWVATISSGGSYTYYLDSVKGRFTISRDNAKNSLYLQMNSLRAEDTAVYYCAPTTVVPFAYWGQGTLVTVSS
VL: DIQMTQSQSSLSTSVGDRVTITCKASQNVRTVVAWYQQKPGKSPKTLIYLASNRHTGVPSRFSGSGSGTEFTLTISNVQPEDFADYFCLQHWSYPLTFGSGTKLEIK
- Kd: 130 pM
